Values quoted from earlier work as cited in article PMC4484741.
Where two headings read alike, the source gives them in different places.

Experiments:
[1] = molecular target: GLP-1 receptor (UniProt P43220)
[2] = molecular target: GLP-1 receptor (UniProt P43220); remark: listed apart in the source

Sequence of GLP-1 receptor (P43220 24-463): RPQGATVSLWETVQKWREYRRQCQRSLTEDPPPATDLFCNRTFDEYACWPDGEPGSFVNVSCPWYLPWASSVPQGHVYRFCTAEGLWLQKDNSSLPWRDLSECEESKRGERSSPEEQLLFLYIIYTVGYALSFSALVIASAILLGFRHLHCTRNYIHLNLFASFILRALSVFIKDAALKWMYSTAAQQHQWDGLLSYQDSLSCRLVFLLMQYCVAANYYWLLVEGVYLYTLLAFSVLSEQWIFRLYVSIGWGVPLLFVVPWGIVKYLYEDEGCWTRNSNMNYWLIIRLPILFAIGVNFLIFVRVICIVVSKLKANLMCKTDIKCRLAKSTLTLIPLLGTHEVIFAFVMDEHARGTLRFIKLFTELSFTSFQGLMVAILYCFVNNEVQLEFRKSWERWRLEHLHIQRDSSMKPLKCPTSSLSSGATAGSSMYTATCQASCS
Sequence of Exendin (9-39) 9-39 (P26349 56-86): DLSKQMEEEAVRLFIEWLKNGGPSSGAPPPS
Sequence of Exendin-4 (P26349 48-86): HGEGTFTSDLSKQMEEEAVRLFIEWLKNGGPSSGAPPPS

| Substance | Kd [1] [nM] | Kd [2] [nM] |
| --- | --- | --- |
| Exendin (9-39) 9-39 (from UniProt P26349) | 3 |  |
| Exendin-4 (from UniProt P26349) |  | 0.14 |
